In the supplement of paper PMC10724198:
Several values for one entry are separate records, joined by “and”; a condition that tells them apart may be missing. Identical values can stand only once. ± gives the standard deviation of the averaged measurements.

How the values were obtained:
Saccharomyces cerevisiae [1] = assay: protein stability index of tFT-peptide fusion in wild type (PSI (0-1 scale)); higher = more stable (slower turnover); details: genetic background: wild type
Saccharomyces cerevisiae [2] = assay: protein stability index of tFT-peptide fusion in deletion strain of DOA10 (PSI (0-1 scale)); higher = more stable (slower turnover)
Description: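 MPS profiling in S. cerevisiae of two library types built from selected 12-aa C-degron peptides (IN1, IN2, LN1, LN3, VN2, R1-R5, W1-W3, Atg1 and Rpa12 C-termini): saturation mutagenesis libraries and C-terminal +1 capping libraries (13 aa). Each peptide is fused to the C-terminus of a sfGFP-mCherry timer, after a GGGS linker. Cells are FACS-sorted into 8 mCherry/sfGFP bins and sequenced. PSI runs from 0 (unstable) to 1 (stable), measured once in wild type and in the das1Δ or doa10Δ background.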

Saccharomyces cerevisiae [3] = assay: protein stability index of tFT-peptide fusion (C-terminal peptide) (PSI (0-1 scale)); higher = more stable (slower turnover)
Description: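 MPS profiling in S. cerevisiae of the tFT-X12 degron library: putative degron peptides plus stable controls, 12 aa, fused to the C-terminus of a sfGFP-mCherry timer. Cells are FACS-sorted into 8 mCherry/sfGFP bins and deep-sequenced. PSI runs from 0 (unstable) to 1 (stable). Backgrounds are wild type, das1Δ and doa10Δ at 30 °C, and wild type, das1Δ, cdc34-1 and cdc53-1 at 37 °C; 2-3 technical replicates each.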

Saccharomyces cerevisiae [4] = assay: protein stability index of tFT-peptide fusion in deletion strain of DAS1 (PSI (0-1 scale)); higher = more stable (slower turnover)
Saccharomyces cerevisiae [5] = assay: protein stability index of tFT-peptide fusion (C-terminal peptide) (PSI (0-1 scale)); higher = more stable (slower turnover); details: genetic background: wild type; temperature: 30 C
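Throughout, for protein stability index of tFT-peptide fusion (C-terminal peptide): PSI is a weighted mean of sequencing reads over stability bins, variants kept only with over 10 reads, mCherry proximal and sfGFP distal, peptide attached via GGGS linker.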
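Throughout, for protein stability index of tFT-peptide fusion in deletion strain of DAS1: PSI is a weighted mean of each variant's read distribution over the sorted stability bins, computed only for variants having over 10 reads in total.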
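Throughout, for protein stability index of tFT-peptide fusion in deletion strain of DOA10: PSI per variant is the weighted mean of its sequencing read distribution over the sorted stability bins, counting only variants with over 10 reads summed across bins.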
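Throughout, for protein stability index of tFT-peptide fusion in wild type: PSI derived as read-weighted mean over the 8 sorting bins, only variants exceeding 10 total reads kept, mCherry placed adjacent to the peptide and sfGFP distal.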

Row | Sequence | protein stability index (Saccharomyces cerevisiae [1]) | protein stability index (Saccharomyces cerevisiae [2]) | other results
1 | AITLPMCPLCLR | 0.556 | 0.702 | 
2 | RSDRVLLPLYFR | 0.352 | 0.696 | 
3 | CLVSLPHLLFFR | 0.0749 | 0.67 | 
4 | GLYWCSVGCWFR | 0.246 | 0.646 | 
5 | GLYMCSVGCWFRA | 0.225 | 0.44 | 
6 | RVTRLDAIYFRIE | 0.627 | 0.689 | 
7 | AWTLPMCPLLLR | 0.111 | 0.665 | 
8 | RLIQPLPVQFLN | 0.0747 and 0.0662 |  | protein stability index (Saccharomyces cerevisiae [3]; genetic background: cdc34-1, temperature: 37 C): 0.2752 ± 0.002; protein stability index (Saccharomyces cerevisiae [3]; genetic background: cdc53-1, temperature: 37 C): 0.644 ± 0.089; protein stability index (Saccharomyces cerevisiae [3]; genetic background: das1 deletion, temperature: 30 C): 0.616 ± 0.026; protein stability index (Saccharomyces cerevisiae [3]; genetic background: das1 deletion, temperature: 37 C): 0.732 ± 0.066; protein stability index (Saccharomyces cerevisiae [3]; genetic background: doa10 deletion, temperature: 30 C): 0.0708 ± 0.018; protein stability index (Saccharomyces cerevisiae [3]; genetic background: wild type, temperature: 30 C): 0.0754 ± 0.0037; protein stability index (Saccharomyces cerevisiae [3]; genetic background: wild type, temperature: 37 C): 0.0963 ± 0.012; protein stability index (Saccharomyces cerevisiae [4]): 0.672 and 0.598; protein stability index (Saccharomyces cerevisiae [5]): 0.0935 ± 0.0062
9 | CLVSLPILLFFRD | 0.103 | 0.594 | 
10 | GLYTCSVGCWFR | 0.392 | 0.682 | 
11 | RSLRVLLPLYFRS | 0.3 | 0.644 | 
12 | GLYECSVGCWFR | 0.526 | 0.678 | 
13 | CLISLPILLFFR | 0.0542 | 0.552 | 
14 | GLYMCSVGCWFRC | 0.188 | 0.433 | 
15 | AITLPMCPLLLRL | 0.12 | 0.563 | 
16 | CLVSLPILLQFR | 0.344 | 0.642 | 
17 | AITLPMAPLLLR | 0.253 | 0.666 | 
18 | CLVNLPILLFFR | 0.0622 | 0.597 | 
19 | CLVSLPILRFFR | 0.612 | 0.657 | 
20 | GTYMCSVGCWFR | 0.344 | 0.675 | 
21 | GLYMCSVGCCFR | 0.611 | 0.651 | 
22 | GLYMGSVGCWFR | 0.303 | 0.704 | 

Row | Sequence | protein stability index (Saccharomyces cerevisiae [1]) | protein stability index (Saccharomyces cerevisiae [2]) | other results
23 | GLYMCSQGCWFR | 0.463 | 0.691 | 
24 | AIGLPMCPLLLR | 0.297 | 0.653 | 
25 | RVTRLDAIYFRIN | 0.0776 | 0.125 | 
26 | GLYMCSVGCWRR | 0.62 | 0.662 | 
27 | CLVSLGILLFFR | 0.276 | 0.436 | 
28 | CLVSLPRLLFFR | 0.0729 | 0.664 | 
29 | RSLRVLLPKYFR | 0.646 | 0.676 | 
30 | RSLRVFLPLYFR | 0.127 | 0.693 | 
31 | SVTRLDAIYFRI | 0.363 | 0.716 | 
32 | NSLRVLLPLYFR | 0.357 | 0.662 | 
33 | GLSMCSVGCWFR | 0.235 | 0.671 | 
34 | RSLRVLLPLGFR | 0.482 | 0.682 | 
35 | RELRVLLPLYFR | 0.19 | 0.684 | 
36 | RSLRVLLALYFR | 0.287 | 0.552 | 
37 | AITLYMCPLLLR | 0.309 | 0.628 | 
38 | AITLPHCPLLLR | 0.264 | 0.713 | 
39 | RVTRLDASYFRI | 0.676 | 0.715 | 
40 | RSLIVLLPLYFR | 0.288 | 0.597 | 
41 | CLVSLPDLLFFR | 0.188 | 0.709 | 
42 | GLYMCSVGEWFR | 0.663 | 0.686 | 
43 | RVTRFDAIYFRI | 0.287 | 0.645 | 
44 | CLVSLPILLFLR | 0.0512 | 0.564 | 

Row | Sequence | protein stability index (Saccharomyces cerevisiae [1]) | protein stability index (Saccharomyces cerevisiae [2]) | other results
45 | AITLPMCPLLLP | 0.627 | 0.675 | 
46 | CNVSLPILLFFR | 0.0527 | 0.642 | 
47 | AITLPMCPTLLR | 0.581 | 0.678 | 
48 | RVTRYDAIYFRI | 0.332 | 0.603 | 
49 | ELYMCSVGCWFR | 0.388 | 0.651 | 
50 | CLVSLPILLFFRP | 0.068 | 0.563 | 
51 | AITLPMNPLLLR | 0.392 | 0.685 | 
52 | GGYMCSVGCWFR | 0.439 | 0.687 | 
53 | RVTRLDAIYFRC | 0.431 | 0.66 | 
54 | RVTRLDAIHFRI | 0.66 | 0.7 | 
55 | GLYMCSVFCWFR | 0.222 | 0.365 | 
56 | CWVSLPILLFFR | 0.0534 | 0.54 | 
57 | AITLTMCPLLLR | 0.386 | 0.667 | 
58 | RSLRVLQPLYFR | 0.285 | 0.685 | 
59 | RSLRTLLPLYFR | 0.455 | 0.686 | 
60 | GLYMCSVHCWFR | 0.371 | 0.453 | 
61 | AITLPMCPLLLRY | 0.152 | 0.633 | 
62 | RKLRVLLPLYFR | 0.282 | 0.668 | 
63 | AITLPDCPLLLR | 0.437 | 0.711 | 
64 | CLVSLPILLFFRS | 0.0709 | 0.533 | 
65 | RVARLDAIYFRI | 0.449 | 0.663 | 
66 | GLYMCSVGCWFRI | 0.11 | 0.455 | 

Row | Sequence | protein stability index (Saccharomyces cerevisiae [1]) | protein stability index (Saccharomyces cerevisiae [2]) | other results
67 | AVTRLDAIYFRI | 0.317 | 0.696 | 
68 | CLVSLPILYFFR | 0.468 | 0.605 | 
69 | RSLRVLLPLVFR | 0.356 | 0.676 | 
70 | AITLPMWPLLLR | 0.124 | 0.673 | 
71 | RVTRLDVIYFRI | 0.3 | 0.649 | 
72 | ALTLPMCPLLLR | 0.21 | 0.646 | 
73 | RVTRWDAIYFRI | 0.165 | 0.368 | 
74 | RVTRLDAIYFRR | 0.653 | 0.708 | 
75 | GPYMCSVGCWFR | 0.413 | 0.667 | 
76 | RSLRVLLGLYFR | 0.392 | 0.662 | 
77 | RVTRLDAIYFRM | 0.422 | 0.674 | 
78 | RVTRLDAIYFRD | 0.688 | 0.72 | 
79 | RSLTVLLPLYFR | 0.24 | 0.662 | 
80 | RSLRVLLPLYMR | 0.326 | 0.696 | 
81 | HITLPMCPLLLR | 0.332 | 0.657 | 
82 | AITPPMCPLLLR | 0.458 | 0.686 | 
83 | AGTLPMCPLLLR | 0.461 | 0.671 | 
84 | GEYMCSVGCWFR | 0.425 | 0.667 | 
85 | RVTRTDAIYFRI | 0.499 | 0.704 | 
86 | GLGMCSVGCWFR | 0.336 | 0.674 | 
87 | AITLPMCPILLR | 0.216 | 0.619 | 
88 | RSLRVLLPLQFR | 0.472 | 0.635 | 

Row | Sequence | protein stability index (Saccharomyces cerevisiae [1]) | protein stability index (Saccharomyces cerevisiae [2]) | other results
89 | AITLPMCPLWLR | 0.239 | 0.695 | 
90 | PGKRNHLIKLLN | 0.127 |  | protein stability index (Saccharomyces cerevisiae [4]): 0.585
91 | KKHKKGQKNKIN | 0.096 |  | protein stability index (Saccharomyces cerevisiae [4]): 0.596
92 | ARWRVGLWRGASC | 0.628 |  | protein stability index (Saccharomyces cerevisiae [4]): 0.669
93 | ARWRVGRWRGAS | 0.533 |  | protein stability index (Saccharomyces cerevisiae [4]): 0.688
94 | FSDRWTFRYWVN | 0.095 |  | protein stability index (Saccharomyces cerevisiae [4]): 0.605
95 | PHLAASFWRVVG | 0.148 |  | protein stability index (Saccharomyces cerevisiae [4]): 0.698
96 | PDTRNHLIKLLN | 0.183 |  | protein stability index (Saccharomyces cerevisiae [4]): 0.59
97 | PSLHASFWRVVG | 0.157 |  | protein stability index (Saccharomyces cerevisiae [4]): 0.684
98 | KKHKKEQKQKIN | 0.0895 |  | protein stability index (Saccharomyces cerevisiae [4]): 0.678
99 | PDKRNHLIKCLN | 0.169 |  | protein stability index (Saccharomyces cerevisiae [4]): 0.634
100 | KKHQKGQKQKIN | 0.0868 |  | protein stability index (Saccharomyces cerevisiae [4]): 0.597
101 | VFGAVGGWRLVG | 0.134 |  | protein stability index (Saccharomyces cerevisiae [4]): 0.698
102 | VRGKVGGWRLVG | 0.129 |  | protein stability index (Saccharomyces cerevisiae [4]): 0.67
103 | PLIQPLPVQFLN | 0.0682 |  | protein stability index (Saccharomyces cerevisiae [4]): 0.604
104 | QSMRWTFRYWVN | 0.047 |  | protein stability index (Saccharomyces cerevisiae [4]): 0.691
105 | PSSAASFWRVVG | 0.143 |  | protein stability index (Saccharomyces cerevisiae [4]): 0.696
106 | LKILRQKMNHQNA | 0.658 |  | protein stability index (Saccharomyces cerevisiae [4]): 0.681
